Results taken from PMC10980163, “Integrin-linked kinase-frizzled 7 interaction maintains cancer stem cells to drive platinum resistance in ovarian cancer” (Research Square, 2024).

Target: T1, recombinant human full length Fzd7 (human, UniProt O75084 33-574)
T1 construct: also called full-length recombinant Fzd7
Experiment: co-IP; recombinant human full-length Fzd7 and ILK mixed 1:1 in lysis buffer, incubated overnight at 4 °C with antibody (anti-Fzd7 in Fig. 4D); Western blot for ILK and Fzd7
Settings: both partners purified

binding result: binds
B1: recombinant human full-length ILK (enzyme, UniProt Q13418 1-452, looked up)
chain: MDDIFTQCREGNAVAVRLWLDNTENDLNQGDDHGFSPLHWACREGRSAVVEMLIMRGARINVMNRGDDTPLHLAASHGHRDIVQKLLQYKADINAVNEHGNVPLHYACFWGQDQVAEDLVANGALVSICNKYGEMPVDKAKAPLRELLRERAEKMGQNLNRIPYKDTFWKGTTRTRPRNGTLNKHSGIDFKQLNFLTKLNENHSGELWKGRWQGNDIVVKVLKVRDWSTRKSRDFNEECPRLRIFSHPNVLPVLGACQSPPAPHPTLITHWMPYGSLYNVLHEGTNFVVDQSQAVKFALDMARGMAFLHTLEPLIPRHALNSRSVMIDEDMTARISMADVKFSFQCPGRMYAPAWVAPEALQKKPEDTNRRSADMWSFAVLLWELVTREVPFADLSNMEIGMKVALEGLRPTIPPGISPHVCKLMKICMNEDPAKRPKFDMIVPILEKMQDK
notes: Integrin-linked kinase (ILK), human, recombinant, full length; also called full-length recombinant ILK
